To fix the notation:
B1: GST-Dyn1xA-PRR (dynamin 1xA proline-rich region, amino acids 746-864) [rat] / Amphiphysin 1 [rat (endogenous in rat brain synaptosomes)] (parent complex)
chain 1: NTTTVSTPMPPPVDDSWLQVQSVPAGRRSPTSSPTPQRRAPAVPPARPGSRGPAPGPPPAGSALGGAPPVPSRPGASPDPFGPPPQVPSRPNRAPPGVPSRSGQASPSRPESPRPPFDL
chain 2: MADIKTGIFAKNVQKRLNRAQEKVLQKLGKADETKDEQFEEYVQNFKRQEAEGTRLQRELRGYLAAIKGMQEASMKLTESLHEVYEPDWYGREDVKMVGEKCDVLWEDFHQKLVDGSLLTLDTYLGQFPDIKNRIAKRSRKLVDYDSARHHLEALQSSKRKDESRISKAEEEFQKAQKVFEEFNVDLQEELPSLWSRRVGFYVNTFKNVSSLEAKFHKEIAVLCHKLYEVMTKLGDQHADKAFSIQGAPSDSGPLRIAKTPSPPEEASPLPSPTASPNHTLAPASPAPVRPRSPSQTRKGPPVPPLPKVTPTKELQQENIINFFEDNFVPEINVTTPSQNEVLEVKKEETLLDLDFDPFKPDVTPAGSAAATHSPMSQTLPWDLWTTSTDLVQPASGGSFNDFTQPQDTSLFTMQTDQNMAETEQALPTEPQAEEPPTTAAAPTAGLDLGLEMEEPKEEAAIPPGTDAGETVGTEGSTGEEAEAEKAALPAGEGESPEGAKIDVESTELASSESPQAAELEAGAPQEKVIPSVVIEPASNHEGEEHQETTTGTETREATEDVAPQGPAGEKQELATEPTPLDSQAATPAPAGAVDASLSAGDAAQELPPGFLYKVETLHDFEAANSDELTLQRGDVVLVVPSDSEADQDAGWLVGVKESDWLQYRDLATYKGLFPENFTRHLE

Variants of B1 are the subject of this test. Description: GST pull-down, quantified Western blot; parent: 60; read off a plot. In general terms: In western blotting, separated proteins are transferred to a membrane and probed.
As to chain 1 R101A, the response was about 51 normalized intensity.

(Values after paper PMC11329700 (2024).)
